Residue numbers refer to the chain shown, from its start.
T1: C5aR1 mutants (N-terminus, ECL1, ECL2, ECL3) (Homo sapiens, UniProt P21730, K17N/K279N)
T1 sequence (P21730 with tags, fused parts or gaps K17N/K279N): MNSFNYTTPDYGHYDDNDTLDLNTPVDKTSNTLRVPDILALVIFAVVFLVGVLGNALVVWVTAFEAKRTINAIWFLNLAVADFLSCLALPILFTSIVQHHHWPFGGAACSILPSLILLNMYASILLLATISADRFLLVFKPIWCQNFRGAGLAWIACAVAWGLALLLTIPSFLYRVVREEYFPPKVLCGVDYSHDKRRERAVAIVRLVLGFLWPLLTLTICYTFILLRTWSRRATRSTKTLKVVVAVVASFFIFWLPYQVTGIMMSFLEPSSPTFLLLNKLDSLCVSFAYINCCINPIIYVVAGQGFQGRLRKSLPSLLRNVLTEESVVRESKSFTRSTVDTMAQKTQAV

T2: C5aR1 mutants (N-terminus, ECL1, ECL2, ECL3) (Homo sapiens, UniProt P21730, K279N/Y14F)
T2 sequence (P21730 with tags, fused parts or gaps Y14F/K279N): T1 sequence (P21730 with tags, fused parts or gaps K17N/K279N) with Y14F, N17K

B1: clone 583: anti-C5aR1 Site I antibody; VH SEQ ID NO: 536, VL SEQ ID NO: 595 (antibody, V domains shown)
VH: EVQLVESGGGLVKPGGSLKLSCAASGFTFNAYAMSWVRQTPEKRLEWVASISTGGNTYCPDSVKDRFTVSRDNVRNILYLQMSSLRSEDTAMYYCTRGYQRFSGFAYWGQGTLVTVS
VL: DVVMTQTPLSPPVSLGYQASISCRSSQSLVHSNGNTYLNWYLQKPGQSPKLLIYKVSNRLSGVPDRFSGSGSGTDFTLKISRVETEDLGVYFCSQSTHVPYTFGGGTKLEIK
B2: clone 66: anti-C5aR1 Site I antibody; VH SEQ ID NO: 483, VL SEQ ID NO: 543 (antibody, V domains shown)
VH: QVQLQQSDAELVKPGASVKISCKASGYTFIDHAIHWVKQRPEQGLEWIGYISPGNGEIKYNEKFKAKATLTADKSSSAAYMQLNSLTSADSAVYFCKRALFYYTGKYQPMDYWGQGTTVTDSS
VL: DIVMTQSQKFMSTTAGDRVSITCKASQNVGSAVVWYQQKPGRSPKLLIYSSSIRYTGVPDRFTGSGSGTDFTLTINSVQSEDLADYFCQQYNSFPLTFGAGTKLEIK

Experiments:
[1] = molecular target: T1, C5aR1 mutants (N-terminus, ECL1, ECL2, ECL3); experiment: Alanine scanning / mutagenesis epitope mapping of C5aR1; type: binding; conditions: insertion of a glycan at K17N
Procedure, shortened: (§1)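 C5aR1 variants carried single alanine substitutions or introduced N-glycosylation sites across the N-terminus, ECL1, ECL2 and ECL3. Binding of individual monoclonal antibody clones to each mutant was assessed to map core epitopes. Sulfation of tyrosines 11 and 14 was considered for the site I binders.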

[2] = molecular target: T2, C5aR1 mutants (N-terminus, ECL1, ECL2, ECL3); experiment: as above; type: binding; conditions: Y14F
Procedure, shortened: as §1

Molecule | binding to C5aR1 mutant [1] | binding to C5aR1 mutant [2]
B1 | abolishes binding | –
B2 | – | abolished binding

— patent US12187807B2, “Antibody molecules to C5AR1 and uses thereof” (Visterra, Inc., priority 2020, dated 2025)
